Drawing on patent publication US20090318342A1, “Compounds” (IMPERIAL INNOVATIONS LIMITED, published 2009), this text covers Ki for one molecule.

Experiment [1] concerns the target T1, ADAMTS-4 (as used in Example 4; form not stated) (Homo sapiens (Human), UniProt O75173).
T1 sequence: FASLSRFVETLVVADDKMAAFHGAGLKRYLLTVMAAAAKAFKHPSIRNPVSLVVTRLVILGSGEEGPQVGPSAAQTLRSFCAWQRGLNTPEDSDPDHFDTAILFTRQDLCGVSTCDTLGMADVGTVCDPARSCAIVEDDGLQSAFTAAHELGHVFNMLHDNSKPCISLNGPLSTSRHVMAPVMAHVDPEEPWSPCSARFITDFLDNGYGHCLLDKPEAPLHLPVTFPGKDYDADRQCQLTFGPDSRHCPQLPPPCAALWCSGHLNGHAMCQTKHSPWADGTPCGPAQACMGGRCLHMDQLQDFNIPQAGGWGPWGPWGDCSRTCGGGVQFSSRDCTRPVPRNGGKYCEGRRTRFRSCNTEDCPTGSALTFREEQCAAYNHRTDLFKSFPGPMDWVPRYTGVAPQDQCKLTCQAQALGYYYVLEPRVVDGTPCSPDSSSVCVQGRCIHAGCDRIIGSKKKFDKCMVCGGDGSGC
Description: GST-IGD-FLAG substrate assay, Ki(app). How it is done:
(§1) Aggrecanase assays were carried out in 50 mM Tris HCl pH 7.5, 150 mM NaCl, 10 mM CaCl₂, 0.02% NaN₃, 0.05% Brij-35 at 37° C. When N-TIMP-3 was used, the inhibitor was preincubated with the enzyme for 1 hour. Reaction volumes were a total of 10 μl, consisting of 5 μl of GST-IGD-FLAG substrate (34 μM), and 5 μl of ADAMTS-4 or ADAMTS-5 (2 nM) with or without inhibitor. Enzyme amounts and incubation times were as indicated. Enzyme reactions were stopped at appropriate time points with the addition of 10 μl 2×SDS-PAGE samples loading buffer containing 20 mM EDTA. Reactions were then applied to a 10% SDS-PAGE analysis. Proteins were stained using Coomassie Brilliant Blue R-250. The stained gels were then scanned using a scanning densitometer (Biorad GS-710, Hemel Hempstead, UK) and the band intensity of the product (17 kDa) quantified using the 1D Phoretix quantification software (Nonlinear Dynamics, Newcastle upon Tyne, UK). Background subtraction was done using the rolling ball method, and band intensity expressed as pixel volumes.

For experiment [2], the target named is T2, ADAMTS-5 (Homo sapiens (Human), UniProt Q9UNA0).
T2 sequence: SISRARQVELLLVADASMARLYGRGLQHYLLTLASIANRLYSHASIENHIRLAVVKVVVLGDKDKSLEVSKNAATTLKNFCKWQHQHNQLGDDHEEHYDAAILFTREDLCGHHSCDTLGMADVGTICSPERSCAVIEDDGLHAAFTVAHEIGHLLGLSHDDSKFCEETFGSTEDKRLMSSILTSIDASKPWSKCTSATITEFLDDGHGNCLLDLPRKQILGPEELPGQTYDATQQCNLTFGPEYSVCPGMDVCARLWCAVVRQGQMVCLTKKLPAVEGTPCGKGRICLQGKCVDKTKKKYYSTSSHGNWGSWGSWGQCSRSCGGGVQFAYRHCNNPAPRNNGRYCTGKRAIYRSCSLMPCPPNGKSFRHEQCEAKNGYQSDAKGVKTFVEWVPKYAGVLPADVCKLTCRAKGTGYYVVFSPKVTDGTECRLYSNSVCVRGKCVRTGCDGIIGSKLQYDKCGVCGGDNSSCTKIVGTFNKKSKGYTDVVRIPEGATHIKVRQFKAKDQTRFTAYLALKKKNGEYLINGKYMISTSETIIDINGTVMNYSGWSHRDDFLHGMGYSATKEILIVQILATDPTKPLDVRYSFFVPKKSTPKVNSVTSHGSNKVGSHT
Description: GST-IGD-FLAG substrate assay, Ki(app). As to the method:
as §1

Experiment [3] has as its target full-length collagenase 1 (MMP-1) (Homo sapiens (Human), UniProt P03956). Put plainly: enzyme inhibition kinetics, Ki(app), as in Example 1.
The target of experiment [4] is gelatinase A (MMP-2) (Homo sapiens (Human), UniProt P08253). Described as above.

A value given as a limit tells only on which side of the number the result lay.

B1: (-2A)N-TIMP-3 (other)
chain: AACTCSPSHPQDAFCNSDIVIRAKVVGKKLVKEGPFGTLVYTIKQMKMYRGFTKMPHVQYIHTEASESLCGLKLEVNKYQYLLTGRVYDGKMYTGLCNFVERWDQLTLSQRKGLNYRYHLGCN
Take B1: the Ki in experiment [1] is 67 nM; in experiment [2] it was 1.4 nM; in experiment [3], greater than 500 nM; in experiment [4], greater than 250 nM.
